Test results from paper PMC6325624, “A novel isoprimeverose‐producing enzyme from Phaeoacremonium minimum is active with low concentrations of xyloglucan oligosaccharides” (FEBS Open Bio, 2018).

Columns and labels:
[1] = system: OC[C@@H](O)[C@@H](O[C@@H]1O[C@H](CO[C@H]2OC[C@@H](O)[C@H](O)[C@H]2O)[C@@H](O[C@@H]2O[C@H](CO[C@H]3OC[C@@H](O)[C@H](O)[C@H]3O)[C@@H](O[C@@H]3O[C@H](CO[C@H]4OC[C@@H](O)[C@H](O)[C@H]4O)[C@@H](O)[C@H](O)[C@H]3O)[C@H](O)[C@H]2O)[C@H](O)[C@H]1O)[C@H](O)[C@@H](O)CO; assay: bicinchoninate reducing-sugar assay, Michaelis-Menten nonlinear regression; assay type: biochemical, Aspergillus oryzae; settings: 50 mM sodium phosphate pH 4.5, 60 °C, 5 min, 0.0625-4 mM substrate
Text: bicinchoninate reducing-sugar assay, Michaelis-Menten nonlinear regression on IpeA

[2] = substrate: OC[C@@H](O)[C@@H](O[C@@H]1O[C@H](CO[C@H]2OC[C@@H](O)[C@H](O)[C@H]2O)[C@@H](O[C@@H]2O[C@H](CO[C@H]3OC[C@@H](O)[C@H](O)[C@H]3O)[C@@H](O[C@@H]3O[C@H](CO[C@H]4OC[C@@H](O)[C@H](O)[C@H]4O)[C@@H](O)[C@H](O)[C@H]3O)[C@H](O)[C@H]2O)[C@H](O)[C@H]1O)[C@H](O)[C@@H](O)CO; assay: as above; assay type: biochemical, Phaeoacremonium minimum; settings: 50 mM sodium phosphate pH 4.5, 60 °C, 5 min, 0.0125-0.8 mM substrate
Text: bicinchoninate reducing-sugar assay, Michaelis-Menten nonlinear regression on PmIPase

With IpeA (Aspergillus oryzae RIB40) as the molecule, how does the Km [1] read?
Its Km is 629 ± 51 µM.

And the kcat [1]?
The kcat was 586 ± 16 s⁻¹.

And the kcat/Km [1]?
The kcat/Km was 931000 M⁻¹ s⁻¹.

B1: PmIPase (Phaeoacremonium minimum UCRPA7) (protein)
chain: VPVYKNPNATVDDRIADLLKRMTIEDKTAQLIQGDISNWINTTDGTFNATGLEWNMKYRASMFYVGYPTNWSTISNGVKIAQDYLVHNTTLGIPALVQSEGIHGFLIPNATIFNSPIAQACSWNPELVEKMGKAIAQESLALGVNNLFAPLGDLARELRFGRVEETYGEDGYLSGEMAYSYVKGLQSGNVAAMVKHFAAFATPEQGVNTAPVHGGERELLTTYLPSYKRAIIDAGAYTIMSAYHCYDGVPAVADYHVLTEILRDSWGFKYFVMSDAGGTDRLCNSFGMCEASPIDSEAVTSMVLPSGNDVEMGGGSYNFQKIPEMVAAGKLDEKLVDQAVSRVLRVKFEMGLFEKPYQGVAEDEASKYINTKETIELARQLDTESIVLLENHEDLLPLKKSAKIAVIGPMAHGYMNYGDYVPYRSQYRGVTPLDGIRAAVDDESSVSYAQGCERWSNDESGFPEAIAAAEGADVAVVVVGTWSRDQGELWQNLNATTGEHIDVASLNLVGAMPRLVSAIINTGKPTVVVFSSGKPVTEPWISTNASALVQQFYPSEQGGNALADVLFGDYNPSGRLSVSFPYDVGTTPIYYDYLNSARAWPNPGHAYPNGTLVFGSNYVLNTPLPLYDFGYGKSYSTFSYSEITLSKSTASSSDTVTVSVDVTNNSTRDGTEVVQLYVKDLVSSVVVPNKQLKGFAKIPIAAGATETVKLDLKVADLGLWDIKYNYVVEPGNFTIFIGSSSADFRANTTLTVV
notes: synthetic codon-optimized gene, secreted from Pichia pastoris X-33 (pGAPZalpha A), Myc and His6 tags kept; full length 777 aa (2334 bp), predicted 24-aa N-terminal signal peptide absent from calculated mass 85 kDa; N-glycosylated, ~101 kDa on SDS/PAGE; putative nucleophile Asp-299, acid/base Glu-523
With B1 as the molecule, how does the Km [2] read?
Its Km is 47.5 ± 4.8 µM.

What about the kcat [2] of the same molecule?
Its kcat is 101 ± 3 s⁻¹.

What about the kcat/Km [2] of the same molecule?
The kcat/Km was 2.13e+06 M⁻¹ s⁻¹.
